From PMC12373785, “Biochemical characterisation supports a central role for Oep80 from Arabidopsis thaliana in chloroplastic β-barrel protein assembly” (Communications Biology, 2025)

B1: Oep80^β-6×His (β-barrel domain of Arabidopsis thaliana Oep80, C-terminal 6×His) (domain or fragment, A. thaliana, UniProt Q9C5J8 398-732, looked up)
chain: SGGFSAGGGISSGITSGPLSGLIGSFAYSHRNLFGRNQKLNVSLERGQIDSIFRINYTDPWIEGDDKRTSRSIMVQNSRTPGNLVHGNQPDNSSLTIGRVTAGVEYSRPFRPKWNGTAGLIFQHAGARDEQGNPIIKDFYSSPLTASGKPHDETMLAKLESIYTGSGDQGSTMFAFNMEQGLPVLPEWLCFNRVTGRARKGIHIGPARFLFSLSGGHVVGKFSPHEAFVIGGTNSVRGYEEGAVGSGRSYVVGSGELSFPVRGPVEGVIFTDYGTDMGSGSTVPGDPAGARLKPGSGYGYGLGVRVDSPLGPLRLEYAFNDQHAGRFHFGVGLRN
notes: AtOep80 (also known as Toc75-V), A. thaliana, β barrel domain, residues 398-732; Mostly dimeric in solution by native MS; Cloned in modified Pet15b for the C-terminal 6×His; also called AtOep80 β barrel domain; Toc75-V β-barrel domain; not shown: His6, C-terminal, kept

Key:
[1] = molecular target: Oep80^β mutant with the Oep21a β-1 peptide sequence covalently attached via a flexible GS linker (A. thaliana) (UniProt Q9C5J8); assay: native MS; protein alone, buffer-exchanged into 200 mM ammonium acetate pH 8.0, 0.5% C8E4; for the oxidised C587S/S408C/G727C mutant 0.1 mM CuSO4 pre-incubated 4 h before buffer exchange; monomer and dimer charge state series
[2] = molecular target: B1; assay: native MS; 100 µM peptide with 7 µM Oep80^β-6×His in 200 mM ammonium acetate pH 8.0, 0.5% C8E4; peptide-bound relative to unbound species, n = 4; details: both partners purified
[3] = molecular target: the molecule itself; assay: native MS; protein alone, buffer-exchanged into 200 mM ammonium acetate pH 8.0, 0.5% C8E4; for the oxidised C587S/S408C/G727C mutant 0.1 mM CuSO4 pre-incubated 4 h before buffer exchange; monomer and dimer charge state series

Row | Molecule | binding result [2] | stoichiometry N [3] | other results
1 | Oep80^β mutant with the Oep21a β-1 peptide sequence covalently attached via a flexible GS linker (from UniProt Q9C5J8 398-732) | – | – | stoichiometry N [1]: 2
2 | GKWNVRYDL (also called Oep21a β-signal peptide; Oep21a β-1 w.t; source: synthetic peptide, bought: Proteogenix (99% purity)) [Oep21a β-1 wild-type peptide] | binds | – | –
3 | GKWNVRYAL (A. thaliana Oep21a β-1, residues 159-167, penultimate residue D changed to A; also called D-to-A mutant; source: synthetic peptide, bought: Proteogenix (99% purity)) [Oep21a β-1 D-to-A peptide] | binds | – | –
4 | GKWNVRYEL (A. thaliana Oep21a β-1, residues 159-167, penultimate residue D changed to E; also called D-to-E mutation; source: synthetic peptide, bought: Proteogenix (99% purity)) [Oep21a β-1 D-to-E peptide] | binds | – | –
5 | B1 | – | 2 | –
6 | 6×His-Oep80^β (N-terminally tagged β-barrel domain of A. thaliana Oep80) (domain or fragment, UniProt Q9C5J8 398-732, looked up, AtOep80 (Toc75-V), A. thaliana, β barrel domain, residues 398-732; Cloned in Pet28a (N-terminal 6×His, removable by thrombin); also called tagged Oep80^β; 6×His-tagged version; not shown: His6, N-terminal, kept) SGGFSAGGGISSGITSGPLSGLIGSFAYSHRNLFGRNQKLNVSLERGQIDSIFRINYTDPWIEGDDKRTSRSIMVQNSRTPGNLVHGNQPDNSSLTIGRVTAGVEYSRPFRPKWNGTAGLIFQHAGARDEQGNPIIKDFYSSPLTASGKPHDETMLAKLESIYTGSGDQGSTMFAFNMEQGLPVLPEWLCFNRVTGRARKGIHIGPARFLFSLSGGHVVGKFSPHEAFVIGGTNSVRGYEEGAVGSGRSYVVGSGELSFPVRGPVEGVIFTDYGTDMGSGSTVPGDPAGARLKPGSGYGYGLGVRVDSPLGPLRLEYAFNDQHAGRFHFGVGLRN | – | 2 | –
7 | Oep80^β C587S/S408C/G727C (domain or fragment, A. thaliana, UniProt Q9C5J8 398-732, looked up, intramolecular disulfide between the introduced cysteines 408 and 727 (after Cu2+ incubation), AtOep80, A. thaliana, β barrel domain, residues 398-732, with native cysteine C587 removed and cysteines introduced in the β1 and β-1 strands) SGGFSAGGGICSGITSGPLSGLIGSFAYSHRNLFGRNQKLNVSLERGQIDSIFRINYTDPWIEGDDKRTSRSIMVQNSRTPGNLVHGNQPDNSSLTIGRVTAGVEYSRPFRPKWNGTAGLIFQHAGARDEQGNPIIKDFYSSPLTASGKPHDETMLAKLESIYTGSGDQGSTMFAFNMEQGLPVLPEWLSFNRVTGRARKGIHIGPARFLFSLSGGHVVGKFSPHEAFVIGGTNSVRGYEEGAVGSGRSYVVGSGELSFPVRGPVEGVIFTDYGTDMGSGSTVPGDPAGARLKPGSGYGYGLGVRVDSPLGPLRLEYAFNDQHAGRFHFCVGLRN | – | 2 | –
8 | untagged Oep80^β (6×His-Oep80^β after thrombin cleavage) (domain or fragment, A. thaliana, UniProt Q9C5J8 398-732, looked up, AtOep80 (Toc75-V), A. thaliana, β barrel domain, residues 398-732; also called tag-free Oep80^β; not shown: His6, N-terminal, cleaved) SGGFSAGGGISSGITSGPLSGLIGSFAYSHRNLFGRNQKLNVSLERGQIDSIFRINYTDPWIEGDDKRTSRSIMVQNSRTPGNLVHGNQPDNSSLTIGRVTAGVEYSRPFRPKWNGTAGLIFQHAGARDEQGNPIIKDFYSSPLTASGKPHDETMLAKLESIYTGSGDQGSTMFAFNMEQGLPVLPEWLCFNRVTGRARKGIHIGPARFLFSLSGGHVVGKFSPHEAFVIGGTNSVRGYEEGAVGSGRSYVVGSGELSFPVRGPVEGVIFTDYGTDMGSGSTVPGDPAGARLKPGSGYGYGLGVRVDSPLGPLRLEYAFNDQHAGRFHFGVGLRN | – | 2 | –
